Assay results as given in the supplement of paper PMC7877785.
± gives the uncertainty stated by the source.

Assay: self-splicing fitness, log relative to wild type (ln ratio); higher = more splicing; Tetrahymena group I intron in knt gene, E. coli kanamycin selection, DiMSum; sequences stand for … in CUCUCU…GGAGGGAAAAGUUAUCAGGCAUGCACCUGGUAGCUAGUCUUUAAACCAAUAGAUUGCAUCGGUUUAAAAGGCAAGACCGUCAAAUUGCGGGAAAGGGGUCAACAGCCGUUCAGUACCAAGUCUCAGGGGAAACUUUGAGAUGGCCUUGCAAAGGGUAUGGUAAUAAGCUGACGGACAUGGUCCUAACCACGCAGCCAAGUCCUAAGUCAACAGAUCUUCUGUUGAUAUGGAUGCAGUUCACAGACUAAAUGUCGGUCGGGGAAGAUGUAUUCUUCUCAUAAGAUAUAGUCGGACCUCUCCUUAAUGGGAGCUAGCGGAUGAAGUGAUGCAACACUGGAGCCGCUGGGAACUAAUUUGUAUGCGAAAGUAUAUUGAUUAGUUUUGGAGUACUCGUGGUCG
Summary of the method: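 A randomised library covering all eight P1ex-region intron nucleotides was built with the intron in the knt kanamycin-resistance gene on pET-22b(+) and held in E. coli BL21(DE3). Cells were grown overnight at 37°C or 30°C on LB agar, with or without 25 μg/mL kanamycin, plus 100 μg/mL carbenicillin, 50 μM IPTG and 0.2% rhamnose, and pooled colonies were amplicon-sequenced on an Illumina HiSeq 2500. DiMSum fitness is the error-weighted combination of wild-type-normalised replicate fold changes, kanamycin versus none.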

With CCUCAGCAAUAUUACGGUGC the “self-splicing fitness (ln)” value (30 °C) was -2.28 ± 0.15 and the “self-splicing fitness (ln)” value (37 °C) was -2.77 ± 0.48.

In the case of CCUCAGCAAUAUUACGGUGG, the “self-splicing fitness (ln)” value (30 °C) is reported as -4.11 ± 0.16 and the “self-splicing fitness (ln)” value (37 °C) is reported as -2.41 ± 0.16.

In the case of CCUCAGCAAUAUUACGGUUA, the “self-splicing fitness (ln)” value (30 °C) is reported as -3.34 ± 0.21 and the “self-splicing fitness (ln)” value (37 °C) is reported as -3.26 ± 0.19.

In the case of CCUCAGCAAUAUUACGGUUG, the “self-splicing fitness (ln)” value (30 °C) is reported as -2.28 ± 0.085 and the “self-splicing fitness (ln)” value (37 °C) is reported as -0.828 ± 0.094.

With CCUCAGCAAUAUUACGUAGA the “self-splicing fitness (ln)” value (30 °C) was -3.97 ± 0.28 and the “self-splicing fitness (ln)” value (37 °C) was -2.8 ± 0.3.

In the case of CCUCAGCAAUAUUACGUAUG, the “self-splicing fitness (ln)” value (30 °C) is reported as -1.75 ± 0.075 and the “self-splicing fitness (ln)” value (37 °C) is reported as -0.495 ± 0.079.

For CCUCAGCAAUAUUACGUCCU, the “self-splicing fitness (ln)” value (30 °C) was -4.39 ± 0.31 and the “self-splicing fitness (ln)” value (37 °C) was -2.68 ± 0.3.

In the case of CCUCAGCAAUAUUACGUGUG, the “self-splicing fitness (ln)” value (30 °C) is reported as -1.4 ± 0.061 and the “self-splicing fitness (ln)” value (37 °C) is reported as -0.812 ± 0.062.

For CCUCAGCAAUAUUACGUUGU, the “self-splicing fitness (ln)” value (30 °C) was -4.98 ± 0.23 and the “self-splicing fitness (ln)” value (37 °C) was -2.52 ± 0.13.

With CCUCAGCAAUAUUACGUUUU the “self-splicing fitness (ln)” value (30 °C) was -4.52 ± 0.27 and the “self-splicing fitness (ln)” value (37 °C) was -3.03 ± 0.17.

With CCUGAGCAAUAUUACGAAAA the “self-splicing fitness (ln)” value (30 °C) was -3.64 ± 0.35 and the “self-splicing fitness (ln)” value (37 °C) was -2.52 ± 0.37.

With CCUGAGCAAUAUUACGAACC the “self-splicing fitness (ln)” value (30 °C) was -3.35 ± 0.3.

With CCUGAGCAAUAUUACGACUG the “self-splicing fitness (ln)” value (30 °C) was -1.38 ± 0.16 and the “self-splicing fitness (ln)” value (37 °C) was -1.25 ± 0.19.

For CCUGAGCAAUAUUACGAGCG, the “self-splicing fitness (ln)” value (30 °C) was -2.57 ± 0.14 and the “self-splicing fitness (ln)” value (37 °C) was -0.727 ± 0.14.

With CCUGAGCAAUAUUACGAGGG the “self-splicing fitness (ln)” value (30 °C) was -3.48 ± 0.19 and the “self-splicing fitness (ln)” value (37 °C) was -2.22 ± 0.23.

For CCUGAGCAAUAUUACGAGUA, the “self-splicing fitness (ln)” value (30 °C) was -2.98 ± 0.21 and the “self-splicing fitness (ln)” value (37 °C) was -3.03 ± 0.43.

In the case of CCUGAGCAAUAUUACGAUCU, the “self-splicing fitness (ln)” value (30 °C) is reported as -4.01 ± 0.39.

For CCUGAGCAAUAUUACGAUUG, the “self-splicing fitness (ln)” value (30 °C) was -2.48 ± 0.17 and the “self-splicing fitness (ln)” value (37 °C) was -2.83 ± 0.27.

For CCUGAGCAAUAUUACGCAAA, the “self-splicing fitness (ln)” value (30 °C) was -2.19 ± 0.26 and the “self-splicing fitness (ln)” value (37 °C) was -2.42 ± 0.28.

In the case of CCUGAGCAAUAUUACGCAGG, the “self-splicing fitness (ln)” value (30 °C) is reported as -2.64 ± 0.27 and the “self-splicing fitness (ln)” value (37 °C) is reported as -3.36 ± 0.42.

In the case of CCUGAGCAAUAUUACGCAUA, the “self-splicing fitness (ln)” value (30 °C) is reported as -3.03 ± 0.32 and the “self-splicing fitness (ln)” value (37 °C) is reported as -2.83 ± 0.47.

With CCUGAGCAAUAUUACGCCGA the “self-splicing fitness (ln)” value (30 °C) was -3.1 ± 0.39 and the “self-splicing fitness (ln)” value (37 °C) was -3.2 ± 0.4.

With CCUGAGCAAUAUUACGCGCU the “self-splicing fitness (ln)” value (30 °C) was -4.19 ± 0.39 and the “self-splicing fitness (ln)” value (37 °C) was -2.1 ± 0.24.

With CCUGAGCAAUAUUACGCGUG the “self-splicing fitness (ln)” value (30 °C) was -3.05 ± 0.19 and the “self-splicing fitness (ln)” value (37 °C) was -2.82 ± 0.22.

In the case of CCUGAGCAAUAUUACGCUUU, the “self-splicing fitness (ln)” value (30 °C) is reported as -1.94 ± 0.17 and the “self-splicing fitness (ln)” value (37 °C) is reported as -3.14 ± 0.28.

With CCUGAGCAAUAUUACGGAGC the “self-splicing fitness (ln)” value (30 °C) was -1.59 ± 0.47 and the “self-splicing fitness (ln)” value (37 °C) was -1.9 ± 0.38.

For CCUGAGCAAUAUUACGGGAC, the “self-splicing fitness (ln)” value (30 °C) was -4.19 ± 0.46 and the “self-splicing fitness (ln)” value (37 °C) was -2.08 ± 0.27.

In the case of CCUGAGCAAUAUUACGGGAG, the “self-splicing fitness (ln)” value (30 °C) is reported as -4.51 ± 0.27 and the “self-splicing fitness (ln)” value (37 °C) is reported as -2.65 ± 0.2.

For CCUGAGCAAUAUUACGGGGC, the “self-splicing fitness (ln)” value (30 °C) was -3.49 ± 0.28.

For CCUGAGCAAUAUUACGGUGC, the “self-splicing fitness (ln)” value (30 °C) was -2.51 ± 0.25 and the “self-splicing fitness (ln)” value (37 °C) was -2.15 ± 0.43.

With CCUGAGCAAUAUUACGUAAA the “self-splicing fitness (ln)” value (37 °C) was -2.49 ± 0.33.

With CCUGAGCAAUAUUACGUAUU the “self-splicing fitness (ln)” value (30 °C) was -2.38 ± 0.16 and the “self-splicing fitness (ln)” value (37 °C) was -2.98 ± 0.21.

With CCUGAGCAAUAUUACGUCAC the “self-splicing fitness (ln)” value (37 °C) was -1.54 ± 0.31.

With CCUGAGCAAUAUUACGUCAG the “self-splicing fitness (ln)” value (30 °C) was -2.64 ± 0.099 and the “self-splicing fitness (ln)” value (37 °C) was -2.19 ± 0.099.

With CCUGAGCAAUAUUACGUCUC the “self-splicing fitness (ln)” value (37 °C) was -3.42 ± 0.37.

In the case of CCUGAGCAAUAUUACGUGAU, the “self-splicing fitness (ln)” value (30 °C) is reported as -3.68 ± 0.24 and the “self-splicing fitness (ln)” value (37 °C) is reported as -3.54 ± 0.33.

In the case of CCUGAGCAAUAUUACGUGGA, the “self-splicing fitness (ln)” value (30 °C) is reported as -3.5 ± 0.2 and the “self-splicing fitness (ln)” value (37 °C) is reported as -2.03 ± 0.18.

For CCUGAGCAAUAUUACGUGUC, the “self-splicing fitness (ln)” value (30 °C) was -4.13 ± 0.21 and the “self-splicing fitness (ln)” value (37 °C) was -2 ± 0.13.

With CCUGAGCAAUAUUACGUUCA the “self-splicing fitness (ln)” value (30 °C) was -3.2 ± 0.43 and the “self-splicing fitness (ln)” value (37 °C) was -2.59 ± 0.32.

With CCUGAGCAAUAUUACGUUCC the “self-splicing fitness (ln)” value (30 °C) was -2.52 ± 0.28 and the “self-splicing fitness (ln)” value (37 °C) was -2.5 ± 0.42.

For CCUGAGCAAUAUUACGUUCG, the “self-splicing fitness (ln)” value (30 °C) was -3.43 ± 0.26 and the “self-splicing fitness (ln)” value (37 °C) was -2.87 ± 0.38.

For CCUUAGCAAUAUUACGACGC, the “self-splicing fitness (ln)” value (30 °C) was -3.94 ± 0.33 and the “self-splicing fitness (ln)” value (37 °C) was -2.51 ± 0.29.

For CCUUAGCAAUAUUACGAGGA, the “self-splicing fitness (ln)” value (30 °C) was -2.8 ± 0.25 and the “self-splicing fitness (ln)” value (37 °C) was -1.69 ± 0.27.

In the case of CCUUAGCAAUAUUACGAGGC, the “self-splicing fitness (ln)” value (30 °C) is reported as -4.12 ± 0.29 and the “self-splicing fitness (ln)” value (37 °C) is reported as -1.6 ± 0.27.
